B1: CPEB3 Ribozyme (parent)
chain: UAACAGGGGGCCACAGCAGAAGCGUUCACGUCGCAGCCCCUGUCAGAUUCUGGUGAAUCUGCGAAUUCUGCUGUAUAUCUC

Variants of: B1
Assay: self-cleavage, relative activity (ratio to wild type); higher = more cleavage; in vitro, sequencing
Method in brief: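 Relative activity compares each variant's cleaved/total read fraction with that of the unmutated ribozyme. To get these fractions, barcoded CPEB3 ribozyme libraries from rounds of error-prone PCR were transcribed with T7 RNA polymerase for 5 hours at 37°C and then given 15 min of DNase I treatment before EDTA was added. The RNAs were reverse transcribed with template switching and sequenced on Illumina, and DNA sequencing linked barcodes to variants. A minimum of 5 reads applied, and three batches were averaged.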

Variant | self-cleavage
A47G G52A | 1.25
G46U U49A | 0.29
G46U U69C | 0.53
G46U U69A | 0.22
A47C C62U | 0.18
A45U A77G | 0.52
A45U A77U | 0.55
G46U A77G | 0.2
G46A U72C | 0.32
A47G A56G | 0.71
A47G A56U | 0.45
A47G A56C | 0.95
A47G G53C | 1.19
A47G G53A | 1.18
G46U G73A | 0.81
A45U A64G | 0.33
A45U A64U | 0.27
A47C U76A | 0.48
G46C U80A | 0.2
G46A A56G | 0.25
A47C G73A | 0.85
G46A A75G | 0.25
A45U C71A | 0.1
A45U C71U | 0.13

Variant | self-cleavage
A45U U54G | 0.21
A45U U54A | 0.51
A45U U54C | 0.53
A45U G55A | 0.14
A45U G55U | 0.24
A45G U58A | 0.31
A45G U58G | 0.18
A45G U58C | 0.31
A47G A77U | 1.06
A47G A77G | 1.09
A47U C59A | 0.17
A47G C81U | 1.04
G46A U60A | 0.5
G46A U60C | 0.14
A45U U78A | 0.62
A45U U78G | 0.65
A45U U78C | 0.44
G46U A56G | 0.18
G46U A56U | 0.17
A45G U76G | 0.97
A45G U76A | 0.96
A45G U76C | 0.79
A47G U78G | 0.79
A47G U78C | 0.93

Variant | self-cleavage
A47G U78A | 1.07
G46A U54C | 0.06
A47G U76G | 1.16
A47G U76C | 1.04
A47G U76A | 0.98
A45G U49G | 0.1
A45G U49C | 0.27
A45G U49A | 0.42
G46U A65G | 0.07
A45U U80C | 0.62
A47C U78A | 0.51
A47C U78C | 0.54
A47C U78G | 0.46
G46U U74A | 0.46
A45U U69A | 0.31
A45U U69C | 0.31
A45U U69G | 0.51
G46U U80C | 0.3
A47G A57G | 0.51
A47G A57C | 0.36
A47G A57U | 0.29
A47C G63A | 0.56
A47U A64G | 0.37
A47U A64U | 0.26

Variant | self-cleavage
A45U G61A | 0.46
A45U A56G | 0.27
A45U A56U | 0.23
A45U A56C | 0.28
G46A A64G | 0.19
G46A A64U | 0.08
A47G C68A | 0.43
A47G C68U | 0.89
G46U U67A | 0.23
G46U U67C | 0.03
A47G U54C | 1.01
A47G U54A | 1.08
G46C U60A | 0.11
G46C U60C | 0.2
A47G C71U | 0.87
G46C U76A | 0.22
G46C U76C | 0.5
G46U A47G | 0.15
A47C A64U | 0.45
A47C A64G | 0.26
G46C U78C | 0.21
A47G U58A | 0.57
A47G U58G | 0.29
A47G U58C | 1.1

Variant | self-cleavage
A47G C50U | 0.8
A47G C50A | 0.59
A45G G61C | 0.23
A45G G61A | 0.82
A47G G55U | 0.99
A47G G55A | 0.75
A47G G55C | 0.57
A45G U80G | 1.02
A45G U80C | 0.91
A45G U80A | 0.91
A47G G61U | 0.49
A47G G61C | 0.35
A47G G61A | 0.61
A45U U76A | 0.52
A45U U76C | 0.49
A47G C62U | 0.3
A47G C62A | 0.33
G46A G53A | 0.45
G46U U54G | 0.16
G46U U54C | 0.14
A47G A64U | 0.34
A47G A64G | 0.9
G46C U72A | 0.25
G46A A77U | 0.48

Variant | self-cleavage
G46A A77G | 0.27
A45U U49A | 0.17
A45U U49C | 0.25
A45U G52C | 0.29
A47G U67G | 0.34
A47G U67A | 0.49
A47G U67C | 0.35
A45U C81U | 0.46
A45U C81A | 0.87
A45G U72A | 0.62
A45G U72C | 0.98
G46U U51C | 0.28
G46A U69C | 0.07
G46A U48C | 0.26
G46C U54A | 0.15
G46A U78C | 0.38
A45U C68U | 0.53
A45U C68G | 0.25
G46U U72G | 0.25
G46U U72A | 0.37
G46U U72C | 0.22
G46U U78C | 0.27
G46A A47U | 0.24
G46A A47C | 0.17

Variant | self-cleavage
A47C U72A | 0.26
A45U G46A | 0.41
G46U A57G | 0.22
A47C U60A | 0.15
A45U U72C | 0.5
A45U U72G | 0.61
A45U U72A | 0.39
A45U U60A | 1.09
A45U U60C | 0.46
A45U U60G | 0.68
A45U A75G | 0.35
A45U A75U | 0.55
A45G G73U | 1.29
A45G G73C | 0.69
A45G G73A | 1.16
G46U G70A | 0.08
A47U A65G | 0.35
A47U A65U | 0.16
A47G U60A | 0.41
A47G U60C | 0.37
A47G U60G | 0.41
A47C C59U | 0.18
A45U C50G | 0.06
A45U C50A | 0.16

Variant | self-cleavage
A47G G63A | 0.88
A47G G63C | 0.93
G46C A64U | 0.11
A47G U66A | 0.45
A47G U66G | 0.27
A47G U66C | 0.35
A47U A57G | 0.32
A47U A57U | 0.64
A45G U67A | 0.38
A45G U67C | 0.34
A47G U69C | 0.57
A47G U69G | 0.68
A47G U69A | 0.6
A47G U74C | 1.13
A47G U74G | 1.24
A47G U74A | 1.21
A47G U48A | 0.23
A47G U48C | 0.31
A47G U48G | 0.26
A47C U80C | 0.43
G46A U74C | 0.48
A45G U69C | 0.38
A45G U69G | 0.32
A45G U69A | 0.42

Variant | self-cleavage
G46U U66C | 0.16
A47G U51G | 0.79
A47G U51C | 0.94
A47G U51A | 0.98
A45U U66C | 0.27
A45U U66G | 0.13
A45U U66A | 0.31
A47C C71U | 0.13
A47G U49C | 0.33
A47G U49G | 0.47
A47G U49A | 0.34
G46U A64G | 0.16
G46U A64U | 0.18
G46A C68A | 0.15
A45U G73A | 1.23
A45U G73U | 1.2
G46C U51A | 0.25
A45U G63U | 0.46
A45U G63C | 0.66
A45U G63A | 0.54
A47G A65U | 0.49
A47G A65G | 0.4
G46A C50G | 0.21
G46A C50U | 0.17

Variant | self-cleavage
G46A U49C | 0.11
G46A U49A | 0.33
G46U G53C | 0.23
G46A U80C | 0.37
A45U U67A | 0.24
A45U U67C | 0.27
A45U U67G | 0.17
A47G G70A | 0.77
G46C U49A | 0.04
A45G U54C | 0.88
A45G U54G | 0.56
A45G U54A | 0.85
A47G U80C | 1.08
A47G U80A | 1.13
A45U A57C | 0.35
A45U A57U | 0.33
A45U A57G | 0.31
A47G G73U | 1.26
A47G G73A | 1.21
A47U A75G | 0.38
A47U A75U | 1
G46A G73A | 0.99
A45U U48A | 0.15
A45U U48C | 0.34

Variant | self-cleavage
A45G U78A | 0.91
A45G U78G | 0.81
A45G U78C | 0.76
G46U U76C | 0.38
A47C G55U | 0.16
G46U C68U | 0.23
A47G A75C | 0.98
A47G A75U | 1.11
A47G A75G | 0.88
G46A U66C | 0.25
A47C A77G | 0.34
A45G U48G | 0.19
A45G U48A | 0.39
A45G U48C | 0.29
G46U U60A | 0.38
G46U U60C | 0.19
A45G U66A | 0.41
A45G U66C | 0.34
A47U A56G | 0.35
A47U A56U | 0.33
A47U A77G | 0.37
A47U A77U | 0.71
A47G C79U | 1.12
G46A A65U | 0.43

Variant | self-cleavage
G46A A65G | 0.14
A47C A65U | 0.12
G46A G63C | 0.62
A47C A75U | 0.3
G46A | 0.33
G46C | 0.32
G46U | 0.28
A47C U67C | 0.12
A47C U67A | 0.23
G46A U67A | 0.18
G46A U67C | 0.15
G46C A56U | 0.13
A45G U74A | 1.13
A45G U74G | 1.21
A45G U74C | 1.1
G46U A75C | 0.37
G46U A75G | 0.22
A45U | 0.51
G46A U58C | 0.38
A45G U60C | 1.13
A45G U60A | 0.53
A45G U60G | 0.25
G46U U48G | 0.14
A45U G70A | 0.29

Variant | self-cleavage
A45U C62G | 0.44
A45U C62A | 0.17
A45U C62U | 0.31
A47G U72C | 1.12
A47G U72A | 0.64
A47G U72G | 0.35
G46C A47G | 0.26
A47C A57G | 0.5
A47C | 0.4
A47U | 0.62
A47G | 1.01
A47U C50A | 0.23
A45U A65U | 0.18
A45U A65G | 0.25
A45G U51G | 0.64
A45G U51A | 0.74
A45G U51C | 0.7
A47C U69C | 0.25
A45U U58A | 0.12
A45U U58C | 0.29
A47C U51A | 0.33
A45U G53U | 0.58
A45U G53C | 0.33
A45U G53A | 0.68

Variant | self-cleavage
A47C U74C | 0.7
A45U U51G | 0.46
A45U U51C | 0.48
A45U U51A | 0.33
A47G C59A | 0.29
A47G C59G | 0.35
G46A U76C | 0.19
G46A U76A | 0.5
G46U U58C | 0.17
A45G G70A | 0.42
A45G G70U | 0.33
A45G G63U | 0.74
A45G G63A | 0.48
A45U U74C | 0.87
A45U U74G | 1.09
A45U U74A | 1.03
A45U C79A | 0.8
A45U C79U | 0.77
G46A A57G | 0.16
A45U A47G | 0.36
A45U A47U | 0.24
A45U A47C | 0.22
